From patent US20240400677A1 (ELECTRA THERAPEUTICS, published 2024) come the findings set out here.

Residue numbers refer to the chain shown, from its start.

First the molecules themselves.
T1: cynomolgus monkey SIRPα on CHO cells (cynomolgus monkey, UniProt A0A2K5VYQ9 31-507)
T1 construct: whole, on cells; also called Cyno SIRPα CHO
T1 sequence: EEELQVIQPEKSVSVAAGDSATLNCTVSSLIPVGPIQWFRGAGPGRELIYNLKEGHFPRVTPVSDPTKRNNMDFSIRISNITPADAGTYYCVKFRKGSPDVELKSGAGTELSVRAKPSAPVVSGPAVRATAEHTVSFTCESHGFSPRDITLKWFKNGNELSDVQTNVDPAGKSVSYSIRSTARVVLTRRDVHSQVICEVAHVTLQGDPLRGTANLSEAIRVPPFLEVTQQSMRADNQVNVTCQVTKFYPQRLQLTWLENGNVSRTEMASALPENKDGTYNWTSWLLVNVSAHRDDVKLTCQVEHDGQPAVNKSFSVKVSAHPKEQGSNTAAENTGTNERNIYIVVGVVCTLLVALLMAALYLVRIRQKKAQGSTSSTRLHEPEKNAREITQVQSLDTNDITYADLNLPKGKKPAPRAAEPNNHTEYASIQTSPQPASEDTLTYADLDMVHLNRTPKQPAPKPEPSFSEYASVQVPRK

T2: cynomolgus monkey SIRPγ on CHO cells (cynomolgus monkey, UniProt Q9P1W8 29-386 (human entry))
T2 construct: also called Cyno SIRPγ CHO
T2 chain: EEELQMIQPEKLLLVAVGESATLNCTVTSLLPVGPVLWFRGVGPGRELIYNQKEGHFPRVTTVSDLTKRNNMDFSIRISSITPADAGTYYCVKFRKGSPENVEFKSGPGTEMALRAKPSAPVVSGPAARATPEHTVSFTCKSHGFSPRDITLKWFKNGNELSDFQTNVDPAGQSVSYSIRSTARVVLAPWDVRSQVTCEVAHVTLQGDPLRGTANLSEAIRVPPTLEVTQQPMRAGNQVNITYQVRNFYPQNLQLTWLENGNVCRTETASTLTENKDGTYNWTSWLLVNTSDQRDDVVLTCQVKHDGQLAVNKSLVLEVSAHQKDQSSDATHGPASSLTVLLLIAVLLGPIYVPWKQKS

T3: cynomolgus monkey SIRPγ-His monomer protein (cynomolgus monkey, UniProt Q9P1W8 29-359 (human entry), limits assumed)
T3 construct: also called Cyno SIRPγ; Cyno SIRPγ-His
T3 chain: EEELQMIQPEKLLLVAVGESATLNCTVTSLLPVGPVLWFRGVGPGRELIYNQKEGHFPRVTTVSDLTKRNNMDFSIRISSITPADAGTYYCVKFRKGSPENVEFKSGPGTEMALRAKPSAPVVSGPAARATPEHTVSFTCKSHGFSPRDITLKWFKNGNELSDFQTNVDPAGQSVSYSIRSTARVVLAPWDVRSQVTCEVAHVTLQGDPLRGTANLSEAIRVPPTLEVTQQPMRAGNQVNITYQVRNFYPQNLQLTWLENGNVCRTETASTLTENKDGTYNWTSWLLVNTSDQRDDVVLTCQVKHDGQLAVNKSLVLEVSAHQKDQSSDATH

B1: Antibody 47 (scFv, V domains shown)
VH: QVQLVQSGAEVKKPGASVKVSCKASGYTFTTYGISWVRQAPGQGLEWMGWMDPNSGSTGYAQKFQGRVTMTRDTSTSTVYMELSSLRSEDTAVYYCARGRGNSYYYYYMDVWGKGTTVTVSS
VL: DIQMTQSPSSLSASVGDRVTITCRASQRIGSYLNWYQQKPGKAPKLLIYGASNLQSGVPSRFSGSGSGTDFTLTISSLQPEDFATYYCQQANSFPFTFGPGTKVDIK
notes: scFv in crude PPE, V5/myc-tagged
B2: Antibody 43 (scFv, V domains shown)
VH: QVQLVQSGAEVKKPGASVKVSCKASGGTFTSYDINWVRQAPGQGLEWMGWISAYNGHTNYAQNLQGRVTMTRDTSTSTVYMELSSLRSEDTAVYYCAREDSSWYFDLWGRGTLVTVSS
VL: DIQMTQSPSSLSASVGDRVTITCRASQSISSWLAWYQQKPGKAPKLLIYDASNLETGVPSRFSGSGSGTDFTLTISSLQPEDFATYYCQQSFSTPPTFGQGTKVEIK
notes: as for B1
B3: Antibody 50 (scFv, V domains shown)
VH: QVQLVQSGAEVKKPGASVKVSCKASGYTFTGYYMHWVRQAPGQGLEWMGTINPSGGSTSYAQKFQGRVTMTRDTSTSTVYMELSSLRSEDTAVYYCVKGNGYYDLWGQGTLVTVSS
VL: B2 VL with A51T, E55Q, T56G, S91Y, F92D, T94F, P96W
notes: as for B1
B4: Antibody 26 (scFv, V domains shown)
VH: QVQLVQSGAEVKKPGASVKVSCKASGYTFTSYYMHWVRQAPGQGLEWMGRINPNSGGTKYAQKFQGRVTMTRDTSTSTVYMELSSLRSEDTAVYYCARLGSAYFDLWGRGTLVTVSS
VL: DIQMTQSPSSLSASVGDRVTITCRASQSVDTWLAWYQQKPGKAPKLLIYEASTLESGVPSRFSGSGSGTDFTLTISSLQPEDFATYYCQQANSFPITFGQGTRLEIK
notes: as for B1
B5: Antibody 13 (scFv, V domains shown)
VH: EVQLLESGGGLVQPGGSLRLSCAASGFTFSNSDMNWVRQAPGKGLEWVSYISSSGNTIYYADSVKGRFTISRDNSKNTLYLQMNSLRAEDTAVYYCARSNWNYPLDYYYMDVWGKGTTVTVSS
VL: DIVMTQSPLSLPVTPGEPASISCRSSQSLLHSNGYNYLDWYLQKPGQSPQLLIYAASSLQSGVPDRFSGSGSGTDFTLKISRVEAEDVGVYYCMQGTHWPPTFGQGTKVEIK
notes: as for B1
B6: Antibody 41 (scFv, V domains shown)
VH: QVQLVQSGAEVKKPGSSVKVSCKASGGTFSNYAISWVRQAPGQGLEWMGGIIPIFGSTASYAQKFQGRVTITADESTSTAYMELSSLRSEDTAVYYCARGVGDDTLTDWGQGTLVTVSS
VL: B5 VL with G96A, T97L, H98Q, W99T, P101L, Q105G
notes: as for B1
B7: Antibody 15 (scFv, V domains shown)
VH: QVQLVQSGAEVKKPGASVKVSCKASGYSFTSYGISWVRQAPGQGLEWMGWISPYNGNTNYAQKLQGRVTMTRDTSTSTVYMELSSLRSEDTAVYYCAREAYGDYGDYFDYWGQGTLVTVSS
VL: DIQMTQSPSSLSASVGDRVTITCRASQGVGDRSAWYQQKPGKAPKLLIYDASNLETGVPSRFSGSGSGTDFTLTISSLQPEDFATYYCQQADTFPYTFGQGTKLEIK
notes: as for B1
B8: Antibody 42 (scFv, V domains shown)
VH: QVQLVQSGAEVKKPGASVKVSCKASGYTFTSYHMHWVRQAPGQGLEWMGWMNPNSGNTGYAQKFQGRVTMTRDTSTSTVYMELSSLRSEDTAVYYCARGGRVVRGVIKGWFDPWGQGTLVTVSS
VL: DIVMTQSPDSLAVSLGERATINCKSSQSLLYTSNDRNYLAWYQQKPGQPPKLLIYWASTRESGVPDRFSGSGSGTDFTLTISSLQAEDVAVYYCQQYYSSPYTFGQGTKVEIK
notes: as for B1
B9: Antibody 49 (scFv, V domains shown)
VH: QVQLVQSGAEVKKPGSSVKVSCKASGGTFSSYAISWVRQAPGQGLEWMGVINPSGGSTSYAQKFQGRVTITADESTSTAYMELSSLRSEDTAVYYCARESRGYYGMDVWGQGTTVTVSS
VL: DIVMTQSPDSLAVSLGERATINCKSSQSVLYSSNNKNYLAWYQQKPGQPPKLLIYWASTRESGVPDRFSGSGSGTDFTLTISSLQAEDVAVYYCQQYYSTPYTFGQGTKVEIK
notes: as for B1
B10: Antibody 40 (scFv, V domains shown)
VH: QVQLVQSGAEVKKPGSSVKVSCKASGGTFSSYAISWVRQAPGQGLEWVGRIHPRDGSTDYAQKFQGRVTITADESTSTAYMELSSLRSEDTAVYYCARVSLRFLEDYGMDVWGQGTTVTVSS
VL: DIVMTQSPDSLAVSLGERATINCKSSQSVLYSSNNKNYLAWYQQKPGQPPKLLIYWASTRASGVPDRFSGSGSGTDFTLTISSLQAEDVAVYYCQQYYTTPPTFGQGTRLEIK
notes: as for B1

T5 sequence (Q9P1W8 29-387 limits assumed): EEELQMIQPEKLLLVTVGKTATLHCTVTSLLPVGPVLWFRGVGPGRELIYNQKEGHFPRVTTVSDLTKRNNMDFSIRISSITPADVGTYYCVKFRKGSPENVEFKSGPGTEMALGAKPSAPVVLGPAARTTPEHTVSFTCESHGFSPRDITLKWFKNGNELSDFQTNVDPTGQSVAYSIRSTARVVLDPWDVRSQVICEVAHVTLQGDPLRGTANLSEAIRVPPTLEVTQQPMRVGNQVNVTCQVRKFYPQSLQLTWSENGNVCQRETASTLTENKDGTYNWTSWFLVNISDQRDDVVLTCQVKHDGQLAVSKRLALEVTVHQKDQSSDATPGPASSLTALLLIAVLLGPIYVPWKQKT

The first experiment concerns the target T1, cynomolgus monkey SIRPα on CHO cells. Description: flow cytometry.
In the case of B1, the binding result was “no binding (tested: fold change <2.0)”.

As to B2, the binding result is on record as “no binding (tested: fold change <2.0)”.

Regarding B3, the binding result was “no binding (tested: fold change <2.0)”.

For B4, the binding result is “no binding (tested: fold change <2.0)”.

Consider B5, for which the binding result is given as “no binding (tested: fold change <2.0)”.

Regarding B6, the binding result was “no binding (tested: fold change <2.0)”.

As for B7, the binding result is “no binding (tested: fold change <2.0)”.

For the molecule B8, the binding result is listed as “no binding (tested: fold change <2.0)”.

Consider B9, for which the binding result is on record as “no binding (tested: fold change <2.0)”.

Take B10: the binding result is “no binding (tested: fold change <2.0)”.

The target in the next experiment is T4, human SIRPβ1 on CHO cells (co-transfected with DAP12) (human, UniProt O00241 30-398).
T4 construct: whole, on cells; co-transfected with DAP12; also called Human SIRPβ1 CHO
T4 sequence (O00241 30-398): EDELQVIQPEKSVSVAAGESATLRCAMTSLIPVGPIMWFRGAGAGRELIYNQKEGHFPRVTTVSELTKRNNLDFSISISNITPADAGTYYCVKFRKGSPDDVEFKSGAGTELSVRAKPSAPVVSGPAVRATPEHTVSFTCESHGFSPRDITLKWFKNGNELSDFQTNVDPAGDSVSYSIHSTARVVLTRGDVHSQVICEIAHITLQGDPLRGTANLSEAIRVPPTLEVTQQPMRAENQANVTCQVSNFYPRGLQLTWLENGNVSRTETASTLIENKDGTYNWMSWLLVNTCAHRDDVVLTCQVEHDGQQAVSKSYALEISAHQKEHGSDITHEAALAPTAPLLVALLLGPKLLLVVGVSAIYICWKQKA
Description: flow cytometry.
As to B1, the binding result is recorded as “no binding (tested: fold change <2.0)”.

With B2, the binding result was “no binding (tested: fold change <2.0)”.

B3: the binding result is listed as “no binding (tested: fold change <2.0)”.

With B5, the binding result was “no binding (tested: fold change <2.0)”.

Turning to B6, the binding result is recorded as “no binding (tested: fold change <2.0)”.

Regarding B7, the binding result is given as “no binding (tested: fold change <2.0)”.

With B8, the binding result is recorded as “no binding (tested: fold change <2.0)”.

Regarding B9, the binding result is “no binding (tested: fold change <2.0)”.

B10: the binding result was “no binding (tested: fold change <2.0)”.

In the next experiment the target is T2, cynomolgus monkey SIRPγ on CHO cells. The experiment in a line: flow cytometry, myc-scFv PPE. The gist of the method: (§1)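 The CHO lines were stably transfected, with SIRPβ1 co-transfected with DAP12 where present. Titrated antibody was detected by labelled anti-human IgG and scored as MFI. The myc-scFv PPE was screened on these lines and on CHO-K1 parental cells, and fold change <2.0 was classed as non-binder.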
With B1, the “MFI fold change over parental CHO” value worked out at 14.2 fold.

With B2, the “MFI fold change over parental CHO” value stood at 22.7 fold.

As to B3, the “MFI fold change over parental CHO” value worked out at 30.8 fold.

Turning to B4, the “MFI fold change over parental CHO” value was found to be 40 fold.

Consider B5, for which the “MFI fold change over parental CHO” value amounted to 5.22 fold.

B6: the “MFI fold change over parental CHO” value came to 36.1 fold.

As for B7, the “MFI fold change over parental CHO” value was 3.71 fold.

Consider B8, for which the “MFI fold change over parental CHO” value came out at 14.5 fold.

Consider B9, for which the “MFI fold change over parental CHO” value was determined as 18.3 fold.

Consider B10, for which the “MFI fold change over parental CHO” value is 15.3 fold.

Another experiment addresses T5, human SIRPγ on stably transfected CHO cells (human, UniProt Q9P1W8 29-387).
T5 construct: also called Human SIRPγ CHO
The experiment in a line: flow cytometry, myc-scFv PPE. The gist of the method:
as §1
Consider B1, for which the “MFI fold change over parental CHO” value came out at 17.3 fold.

B2: the “MFI fold change over parental CHO” value came to 41.2 fold.

As to B3, the “MFI fold change over parental CHO” value was determined as 12.8 fold.

Turning to B4, the “MFI fold change over parental CHO” value was determined as 28.4 fold.

As to B5, the “MFI fold change over parental CHO” value came out at 7.06 fold.

For B6, the “MFI fold change over parental CHO” value is 25.5 fold.

Regarding B7, the “MFI fold change over parental CHO” value stood at 17 fold.

In the case of B8, the “MFI fold change over parental CHO” value came to 15.9 fold.

With B9, the “MFI fold change over parental CHO” value worked out at 18.6 fold.

Consider B10, for which the “MFI fold change over parental CHO” value was 15.4 fold.

Another experiment addresses T3, cynomolgus monkey SIRPγ-His monomer …. The experiment in a line: BLI Octet, captured scFv PPE, cyno SIRP. Here is the method: Unique binders were further tested for binding to human SIRPαV1, human SIRPαV2, and human SIRPβ1. Briefly, biotinylated anti-V5 was immobilized onto streptavidin biosensors. Each V5-tagged SIRPγ scFv antibody as crude PPE was captured by the anti-V5 antibody. SIRP-His monomer protein at 500 nM was exposed to the biosensor for binding to SIRP scFv. The biosensors were then exposed to wash buffer to measure off-rate kinetics. The resulting association and dissociation kinetics (kdis) was analyzed. […] Similarly, cross-reactivity to cynomolgus monkey SIRPγ, cynomolgus monkey SIRPα, and cynomolgus monkey SIRPβ1 were tested.
Take B1: the binding result is “binds”.

Turning to B2, the binding result is “binds”.

Consider B3, for which the binding result is “binds”.

For B4, the binding result is “binds”.

On to B5, for which the binding result is listed as “binds”.

As to B6, the binding result is given as “binds”.

With B7, the binding result is reported as “binds”.

For the molecule B8, the binding result is listed as “binds”.

Consider B9, for which the binding result is reported as “binds”.

For B10, the binding result is “binds”.

For a further experiment, the target named is T6, human SIRPγ-His monomer protein (human, UniProt Q9P1W8 29-360).
T6 construct: also called hSIRPγ
T6 sequence (Q9P1W8 29-360 limits assumed): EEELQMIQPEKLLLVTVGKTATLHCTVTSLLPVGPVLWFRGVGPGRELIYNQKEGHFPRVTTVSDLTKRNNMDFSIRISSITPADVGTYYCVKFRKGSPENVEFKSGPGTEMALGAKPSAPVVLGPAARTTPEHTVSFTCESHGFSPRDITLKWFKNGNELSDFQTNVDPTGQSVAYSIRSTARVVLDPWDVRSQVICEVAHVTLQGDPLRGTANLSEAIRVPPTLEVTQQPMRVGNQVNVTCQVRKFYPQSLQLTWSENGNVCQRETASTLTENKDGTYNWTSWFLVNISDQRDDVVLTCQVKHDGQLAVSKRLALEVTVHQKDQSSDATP
Description: BLI Octet, V5-scFv PPE captured, SIRP-His 500 nM.
For B1, the kdis is greater than 0.01 s⁻¹.

On to B3, for which the kdis is greater than 0.01 s⁻¹.

Take B4: the kdis lay in the range of 0.001 to 0.01 s⁻¹.

Take B5: the kdis lay within 0.001 to 0.01 s⁻¹.

As for B6, the kdis was greater than 0.01 s⁻¹.

For B7, the kdis lay in the range of 0.001 to 0.01 s⁻¹.

B8 had a kdis greater than 0.01 s⁻¹.

Regarding B9, the kdis was greater than 0.01 s⁻¹.

For the molecule B10, the kdis lay in the range of 0.001 to 0.01 s⁻¹.
